± gives the uncertainty stated by the source.
Experiment: self-splicing fitness, log relative to wild type (ln ratio); higher = more splicing; Tetrahymena group I intron in knt gene, E. coli kanamycin selection, DiMSum; sequences stand for … in CUCUCU…GGAGGGAAAAGUUAUCAGGCAUGCACCUGGUAGCUAGUCUUUAAACCAAUAGAUUGCAUCGGUUUAAAAGGCAAGACCGUCAAAUUGCGGGAAAGGGGUCAACAGCCGUUCAGUACCAAGUCUCAGGGGAAACUUUGAGAUGGCCUUGCAAAGGGUAUGGUAAUAAGCUGACGGACAUGGUCCUAACCACGCAGCCAAGUCCUAAGUCAACAGAUCUUCUGUUGAUAUGGAUGCAGUUCACAGACUAAAUGUCGGUCGGGGAAGAUGUAUUCUUCUCAUAAGAUAUAGUCGGACCUCUCCUUAAUGGGAGCUAGCGGAUGAAGUGAUGCAACACUGGAGCCGCUGGGAACUAAUUUGUAUGCGAAAGUAUAUUGAUUAGUUUUGGAGUACUCGUGGUCG
How it was run: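 DiMSum derived fitness as the error-weighted combination of fold changes across replicates, kanamycin versus no kanamycin, normalised to wild type. E. coli BL21(DE3) held the library, which randomised all eight P1ex-region intron nucleotides within the knt kanamycin-resistance gene on pET-22b(+). Six replicate transformations grew overnight at 37°C or 30°C on LB agar with or without 25 μg/mL kanamycin, also containing 100 μg/mL carbenicillin, 50 μM IPTG and 0.2% rhamnose, and pooled colonies were amplicon-sequenced on an Illumina HiSeq 2500.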

Sequence	self-splicing fitness (ln) (30 °C)	self-splicing fitness (ln) (37 °C)
CUUCAGCAAUAUUACGCGUA	-2.92 ± 0.18	-2.46 ± 0.17
CUUCAGCAAUAUUACGCUAG	-3.22 ± 0.26	-1.34 ± 0.19
CUUCAGCAAUAUUACGCUCG	-2.42 ± 0.15	-0.933 ± 0.26
CUUCAGCAAUAUUACGGAAU	-1.46 ± 0.13	-1.17 ± 0.14
CUUCAGCAAUAUUACGGAGA	-3.47 ± 0.21	-3.04 ± 0.19
CUUCAGCAAUAUUACGGGGA	-3.36 ± 0.27	-1.65 ± 0.18
CUUCAGCAAUAUUACGGUAA	-1.67 ± 0.23	-1.88 ± 0.17
CUUCAGCAAUAUUACGGUCA	-2.2 ± 0.25	-3.2 ± 0.24
CUUCAGCAAUAUUACGUUGU	-3.52 ± 0.18	-2.92 ± 0.28
CUUGAGCAAUAUUACGACUU	-2.53 ± 0.37	-3.56 ± 0.43
CUUGAGCAAUAUUACGAGCA	-2.65 ± 0.41	-3.07 ± 0.33
CUUGAGCAAUAUUACGAGGA	-3.08 ± 0.38	
CUUGAGCAAUAUUACGAUAA	-3.27 ± 0.31	-0.951 ± 0.37
CUUGAGCAAUAUUACGAUGU	-2.24 ± 0.14	-3.43 ± 0.26
CUUGAGCAAUAUUACGCAGG	-3.46 ± 0.25	-3.55 ± 0.35
CUUGAGCAAUAUUACGCUAA	-4.05 ± 0.31	-3.36 ± 0.35
CUUGAGCAAUAUUACGCUAU	-3.44 ± 0.34	-2.58 ± 0.49
CUUGAGCAAUAUUACGCUCU	-2.57 ± 0.5	-1.13 ± 0.33
CUUGAGCAAUAUUACGGAUU	-4.83 ± 0.45	-3.23 ± 0.29
CUUGAGCAAUAUUACGGCAU		-1.93 ± 0.28

Sequence	self-splicing fitness (ln) (30 °C)	self-splicing fitness (ln) (37 °C)
CUUGAGCAAUAUUACGGGCA	-3.94 ± 0.35	-1.91 ± 0.21
CUUGAGCAAUAUUACGGUAA		-2.99 ± 0.47
CUUGAGCAAUAUUACGGUAC	-2.24 ± 0.2	-2.16 ± 0.42
CUUGAGCAAUAUUACGUAAU	-2.79 ± 0.18	-2.81 ± 0.24
CUUGAGCAAUAUUACGUAGU	-3.28 ± 0.3	-2.11 ± 0.33
CUUGAGCAAUAUUACGUCAU	-3.58 ± 0.29	-2.88 ± 0.31
CUUGAGCAAUAUUACGUGAC	-2.55 ± 0.24	-1.08 ± 0.19
CUUGAGCAAUAUUACGUGUA	-2.71 ± 0.14	-2.84 ± 0.2
CUUGAGCAAUAUUACGUGUG	-2.12 ± 0.07	-0.901 ± 0.073
CUUUAGCAAUAUUACGAACU	-3.28 ± 0.24	-2.54 ± 0.19
CUUUAGCAAUAUUACGCAAG	-2.43 ± 0.22	-1.67 ± 0.3
CUUUAGCAAUAUUACGCGCU	-3.14 ± 0.25	-0.469 ± 0.17
CUUUAGCAAUAUUACGCGUA	-3.14 ± 0.26	-3.28 ± 0.35
CUUUAGCAAUAUUACGCUAC	-2.83 ± 0.35	
CUUUAGCAAUAUUACGGCAA	-2.06 ± 0.24	-1.98 ± 0.28
CUUUAGCAAUAUUACGGGAU	-3.8 ± 0.22	-2.67 ± 0.19
CUUUAGCAAUAUUACGGUGU	-3.52 ± 0.21	-3.12 ± 0.25
CUUUAGCAAUAUUACGUACG	-0.271 ± 0.098	0.109 ± 0.12
CUUUAGCAAUAUUACGUCGG	-1.79 ± 0.11	-1.25 ± 0.12

Reference: the supplement of paper PMC7877785
